The results in this text go back to patent publication US20220204580A1 (AstraZeneca / MedImmune, published 2022).

Numbered stars: 1 amine (or outer) side, 2 acyl side, 3 side chain; on linkers, the order of the positions; unused ones are H or OH. Bridge positions count the residues as written; N and C are the ends. Square brackets hold non-standard residues; d marks the D form. Side chains are listed from the residue outwards. Ends that are not written are not given here. * marks the point of attachment. C18 diacid = O=C(O)CCCCCCCCCCCCCCCCC(=O)*; γGlu = O=C(O)[C@H](CCC(=O)[*:2])N[*:1]; αMeF = C[C@](N)(Cc1ccccc1)C(=O)O; Dab = NCC[C@H](N)C(=O)O; Aib = CC(C)(N)C(=O)O

Assay [1] concerns the target T1, human amylin receptor (calcitonin receptor co-expressed with receptor activity modifying protein, RAMP3) (human, UniProt P30988 25-474; O60896 24-148).
T1 sequence (looked up) 1: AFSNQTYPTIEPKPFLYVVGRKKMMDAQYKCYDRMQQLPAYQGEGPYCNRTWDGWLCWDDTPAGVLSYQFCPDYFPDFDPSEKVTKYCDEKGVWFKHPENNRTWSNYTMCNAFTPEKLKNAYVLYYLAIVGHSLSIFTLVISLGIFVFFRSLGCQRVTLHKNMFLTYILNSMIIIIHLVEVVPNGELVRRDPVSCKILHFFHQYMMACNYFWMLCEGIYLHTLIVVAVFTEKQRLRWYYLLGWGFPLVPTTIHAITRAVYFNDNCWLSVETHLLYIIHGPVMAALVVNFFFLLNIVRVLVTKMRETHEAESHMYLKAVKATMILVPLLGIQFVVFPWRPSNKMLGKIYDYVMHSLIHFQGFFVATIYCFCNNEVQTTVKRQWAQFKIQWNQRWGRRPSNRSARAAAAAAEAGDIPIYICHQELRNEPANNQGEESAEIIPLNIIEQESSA
T1 sequence (looked up) 2: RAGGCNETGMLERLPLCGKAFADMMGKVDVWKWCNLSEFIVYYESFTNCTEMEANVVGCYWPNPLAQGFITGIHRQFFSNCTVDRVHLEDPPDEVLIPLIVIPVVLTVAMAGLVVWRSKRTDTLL
Kind of assay: cell-based or functional assay.

The target in assay [2] is T2, human calcitonin receptor (human, UniProt P30988 25-474).
T2 sequence (looked up): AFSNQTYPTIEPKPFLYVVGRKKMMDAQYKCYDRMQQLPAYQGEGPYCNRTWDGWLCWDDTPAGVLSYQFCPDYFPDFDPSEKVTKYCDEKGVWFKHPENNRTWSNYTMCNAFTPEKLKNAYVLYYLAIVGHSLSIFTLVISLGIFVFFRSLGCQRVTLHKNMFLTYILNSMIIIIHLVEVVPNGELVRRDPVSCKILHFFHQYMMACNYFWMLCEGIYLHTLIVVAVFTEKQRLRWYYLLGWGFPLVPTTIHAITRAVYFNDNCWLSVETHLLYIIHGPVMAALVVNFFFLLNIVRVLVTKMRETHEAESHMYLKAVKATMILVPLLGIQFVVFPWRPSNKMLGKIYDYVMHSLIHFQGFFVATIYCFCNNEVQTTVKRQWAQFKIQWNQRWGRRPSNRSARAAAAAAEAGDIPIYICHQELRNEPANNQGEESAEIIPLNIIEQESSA
Kind of assay: cell-based or functional assay.

B1: Peptide 27 (SEQ ID NO: 27) (peptide)
peptide: K([γGlu-γGlu-C18 diacid])CNIATCATQRLANFLVHSS[Dab]NFGPILPPTNVGSRTY-NH2
modifications: disulfide 2-7; N-terminus assumed
SMILES: CC[C@H](C)[C@@H]1NC(=O)[C@H](CC(N)=O)NC(=O)[C@@H](NC(=O)[C@@H](N)CCCCNC(=O)CC[C@H](NC(=O)CC[C@H](NC(=O)CCCCCCCCCCCCCCCCC(=O)O)C(=O)O)C(=O)O)CSSC[C@@H](C(=O)N[C@@H](C)C(=O)N[C@H](C(=O)N[C@@H](CCC(N)=O)C(=O)N[C@@H](CCCNC(=N)N)C(=O)N[C@@H](CC(C)C)C(=O)N[C@@H](C)C(=O)N[C@@H](CC(N)=O)C(=O)N[C@@H](Cc2ccccc2)C(=O)N[C@@H](CC(C)C)C(=O)N[C@H](C(=O)N[C@@H](Cc2c[nH]cn2)C(=O)N[C@@H](CO)C(=O)N[C@@H](CO)C(=O)N[C@@H](CCN)C(=O)N[C@@H](CC(N)=O)C(=O)N[C@@H](Cc2ccccc2)C(=O)NCC(=O)N2CCC[C@H]2C(=O)N[C@H](C(=O)N[C@@H](CC(C)C)C(=O)N2CCC[C@H]2C(=O)N2CCC[C@H]2C(=O)N[C@H](C(=O)N[C@@H](CC(N)=O)C(=O)N[C@H](C(=O)NCC(=O)N[C@@H](CO)C(=O)N[C@@H](CCCNC(=N)N)C(=O)N[C@H](C(=O)N[C@@H](Cc2ccc(O)cc2)C(N)=O)[C@@H](C)O)C(C)C)[C@@H](C)O)[C@@H](C)CC)C(C)C)[C@@H](C)O)NC(=O)[C@H]([C@@H](C)O)NC(=O)[C@H](C)NC1=O
In the case of B1, in assay [1], the “EC50 (cAMP production)” value came to 0.134 nM and the “Ratio (EC50 hCTR / EC50 hAMYR3)” value was determined as 5. In addition, in assay [2], the “EC50 (cAMP production)” value was 0.731 nM.

As to {C18 diacid}-[γGlu][γGlu]GGGKCNTATCATQRLANFLVHSSNNFGPILPPTNVGSNTY-NH2 (disulfide 7-12) [Peptide 4 (SEQ ID NO: 4)], the “EC50 (cAMP production)” value in assay [1] was 0.248 nM; in assay [2], 7.53 nM. Further, the “Ratio (EC50 hCTR / EC50 hAMYR3)” value in assay [1] stood at 30.

B2: Peptide 25 (SEQ ID NO: 25) (peptide)
peptide: K([γGlu-C18 diacid])CNTATCATQRLANFLVHSSNN[αMeF]GPILPPTRVGSNTY-NH2
modifications: disulfide 2-7; N-terminus assumed
SMILES: CC[C@H](C)[C@H](NC(=O)[C@@H]1CCCN1C(=O)CNC(=O)[C@](C)(Cc1ccccc1)NC(=O)[C@H](CC(N)=O)NC(=O)[C@H](CC(N)=O)NC(=O)[C@H](CO)NC(=O)[C@H](CO)NC(=O)[C@H](Cc1c[nH]cn1)NC(=O)[C@@H](NC(=O)[C@H](CC(C)C)NC(=O)[C@H](Cc1ccccc1)NC(=O)[C@H](CC(N)=O)NC(=O)[C@H](C)NC(=O)[C@H](CC(C)C)NC(=O)[C@H](CCCNC(=N)N)NC(=O)[C@H](CCC(N)=O)NC(=O)[C@@H](NC(=O)[C@H](C)NC(=O)[C@@H]1CSSC[C@H](NC(=O)[C@@H](N)CCCCNC(=O)CC[C@H](NC(=O)CCCCCCCCCCCCCCCCC(=O)O)C(=O)O)C(=O)N[C@@H](CC(N)=O)C(=O)N[C@@H]([C@@H](C)O)C(=O)N[C@@H](C)C(=O)N[C@@H]([C@@H](C)O)C(=O)N1)[C@@H](C)O)C(C)C)C(=O)N[C@@H](CC(C)C)C(=O)N1CCC[C@H]1C(=O)N1CCC[C@H]1C(=O)N[C@H](C(=O)N[C@@H](CCCNC(=N)N)C(=O)N[C@H](C(=O)NCC(=O)N[C@@H](CO)C(=O)N[C@@H](CC(N)=O)C(=O)N[C@H](C(=O)N[C@@H](Cc1ccc(O)cc1)C(N)=O)[C@@H](C)O)C(C)C)[C@@H](C)O
For the molecule B2, the “EC50 (cAMP production)” value stood at 0.105 nM in assay [1] and 1.25 nM in assay [2]. In addition, in assay [1], the “Ratio (EC50 hCTR / EC50 hAMYR3)” value was determined as 12.

B3: Peptide 28 (SEQ ID NO: 28) (peptide)
peptide: K([γGlu-C18 diacid])KCNTATCATQRLANFLVHSS[Dab]NFGPILPPTEVGSNTY-NH2
modifications: disulfide 3-8; N-terminus assumed
SMILES: CC[C@H](C)[C@H](NC(=O)[C@@H]1CCCN1C(=O)CNC(=O)[C@H](Cc1ccccc1)NC(=O)[C@H](CC(N)=O)NC(=O)[C@H](CCN)NC(=O)[C@H](CO)NC(=O)[C@H](CO)NC(=O)[C@H](Cc1c[nH]cn1)NC(=O)[C@@H](NC(=O)[C@H](CC(C)C)NC(=O)[C@H](Cc1ccccc1)NC(=O)[C@H](CC(N)=O)NC(=O)[C@H](C)NC(=O)[C@H](CC(C)C)NC(=O)[C@H](CCCNC(=N)N)NC(=O)[C@H](CCC(N)=O)NC(=O)[C@@H](NC(=O)[C@H](C)NC(=O)[C@@H]1CSSC[C@H](NC(=O)[C@H](CCCCN)NC(=O)[C@@H](N)CCCCNC(=O)CC[C@H](NC(=O)CCCCCCCCCCCCCCCCC(=O)O)C(=O)O)C(=O)N[C@@H](CC(N)=O)C(=O)N[C@@H]([C@@H](C)O)C(=O)N[C@@H](C)C(=O)N[C@@H]([C@@H](C)O)C(=O)N1)[C@@H](C)O)C(C)C)C(=O)N[C@@H](CC(C)C)C(=O)N1CCC[C@H]1C(=O)N1CCC[C@H]1C(=O)N[C@H](C(=O)N[C@@H](CCC(=O)O)C(=O)N[C@H](C(=O)NCC(=O)N[C@@H](CO)C(=O)N[C@@H](CC(N)=O)C(=O)N[C@H](C(=O)N[C@@H](Cc1ccc(O)cc1)C(N)=O)[C@@H](C)O)C(C)C)[C@@H](C)O
In the case of B3, in assay [1], the “EC50 (cAMP production)” value was 0.39 nM and the “Ratio (EC50 hCTR / EC50 hAMYR3)” value was determined as 23. In addition, the “EC50 (cAMP production)” value in assay [2] was 9.14 nM.

B4: Peptide 26 (SEQ ID NO: 26) (peptide)
peptide: K([γGlu-γGlu-C18 diacid])CNTATCATQRLANFL[Aib]HSSNN[αMeF]GPILPPTNVGSNTY-NH2
modifications: disulfide 2-7; N-terminus assumed
SMILES: CC[C@H](C)[C@H](NC(=O)[C@@H]1CCCN1C(=O)CNC(=O)[C@](C)(Cc1ccccc1)NC(=O)[C@H](CC(N)=O)NC(=O)[C@H](CC(N)=O)NC(=O)[C@H](CO)NC(=O)[C@H](CO)NC(=O)[C@H](Cc1c[nH]cn1)NC(=O)C(C)(C)NC(=O)[C@H](CC(C)C)NC(=O)[C@H](Cc1ccccc1)NC(=O)[C@H](CC(N)=O)NC(=O)[C@H](C)NC(=O)[C@H](CC(C)C)NC(=O)[C@H](CCCNC(=N)N)NC(=O)[C@H](CCC(N)=O)NC(=O)[C@@H](NC(=O)[C@H](C)NC(=O)[C@@H]1CSSC[C@H](NC(=O)[C@@H](N)CCCCNC(=O)CC[C@H](NC(=O)CC[C@H](NC(=O)CCCCCCCCCCCCCCCCC(=O)O)C(=O)O)C(=O)O)C(=O)N[C@@H](CC(N)=O)C(=O)N[C@@H]([C@@H](C)O)C(=O)N[C@@H](C)C(=O)N[C@@H]([C@@H](C)O)C(=O)N1)[C@@H](C)O)C(=O)N[C@@H](CC(C)C)C(=O)N1CCC[C@H]1C(=O)N1CCC[C@H]1C(=O)N[C@H](C(=O)N[C@@H](CC(N)=O)C(=O)N[C@H](C(=O)NCC(=O)N[C@@H](CO)C(=O)N[C@@H](CC(N)=O)C(=O)N[C@H](C(=O)N[C@@H](Cc1ccc(O)cc1)C(N)=O)[C@@H](C)O)C(C)C)[C@@H](C)O
Take B4: in assay [1], the “EC50 (cAMP production)” value stood at 0.409 nM and the “Ratio (EC50 hCTR / EC50 hAMYR3)” value amounted to 7. In addition, in assay [2], the “EC50 (cAMP production)” value was 2.8 nM.

B5: Peptide 23 (SEQ ID NO: 23) (peptide)
peptide: K([γGlu-γGlu-C18 diacid])CNTATCATQRLANFLVHSSNN[αMeF]GPILPPTEVGSNTY-NH2
modifications: disulfide 2-7; N-terminus assumed
SMILES: CC[C@H](C)[C@H](NC(=O)[C@@H]1CCCN1C(=O)CNC(=O)[C@](C)(Cc1ccccc1)NC(=O)[C@H](CC(N)=O)NC(=O)[C@H](CC(N)=O)NC(=O)[C@H](CO)NC(=O)[C@H](CO)NC(=O)[C@H](Cc1c[nH]cn1)NC(=O)[C@@H](NC(=O)[C@H](CC(C)C)NC(=O)[C@H](Cc1ccccc1)NC(=O)[C@H](CC(N)=O)NC(=O)[C@H](C)NC(=O)[C@H](CC(C)C)NC(=O)[C@H](CCCNC(=N)N)NC(=O)[C@H](CCC(N)=O)NC(=O)[C@@H](NC(=O)[C@H](C)NC(=O)[C@@H]1CSSC[C@H](NC(=O)[C@@H](N)CCCCNC(=O)CC[C@H](NC(=O)CC[C@H](NC(=O)CCCCCCCCCCCCCCCCC(=O)O)C(=O)O)C(=O)O)C(=O)N[C@@H](CC(N)=O)C(=O)N[C@@H]([C@@H](C)O)C(=O)N[C@@H](C)C(=O)N[C@@H]([C@@H](C)O)C(=O)N1)[C@@H](C)O)C(C)C)C(=O)N[C@@H](CC(C)C)C(=O)N1CCC[C@H]1C(=O)N1CCC[C@H]1C(=O)N[C@H](C(=O)N[C@@H](CCC(=O)O)C(=O)N[C@H](C(=O)NCC(=O)N[C@@H](CO)C(=O)N[C@@H](CC(N)=O)C(=O)N[C@H](C(=O)N[C@@H](Cc1ccc(O)cc1)C(N)=O)[C@@H](C)O)C(C)C)[C@@H](C)O
For the molecule B5, in assay [1], the “EC50 (cAMP production)” value came to 0.238 nM and the “Ratio (EC50 hCTR / EC50 hAMYR3)” value amounted to 2. For the same molecule, the “EC50 (cAMP production)” value in assay [2] stood at 0.589 nM.
